Results on 7 molecules are retold here after patent US11739333B2, “Regulation of gene expression by aptamer-modulated RNase p cleavage” (MeiraGTx UK II Limited, priority 2017, dated 2023).

For data set [1], the system named is luciferase target gene expression in HEK 293 cells. In words: Firefly luciferase assay of cultured cells, mascRNA inserted in 3' UTR. It is filed as cell-based. To be noted: no ligand. As to the method: Plasmid constructs: DNA fragments containing mouse mascRNA sequence and restriction sites at each end were synthesized (IDT), and digested and cloned into a plasmid backbone Con 8 that contains CMV enhancer/promoter and human beta-globin polyadenylation sequence. All constructs were verified by DNA sequencing (Genewiz).
Firefly luciferase assay of cultured cells: 3.5×10^4 HEK 293 cells were plated in 96-well flat bottom plate the day before transfection. Plasmid DNA (500 ng) was added to a tube or a 96-well U-bottom plate. Separately, TransIT-293 reagent (Minis; 1.4 μL) was added to 50 μL opti-mem I media (Life Technologies) and allowed to sit for 5 minutes at room temperature (“RT”). Then, 50 μL of this diluted transfection reagent was added to the DNA, mixed, and incubated at RT for 20 min. Finally, 7 μL of this solution was added to a well of cells in a 96-well plate. 4 hours after transfection, medium containing transfection solution was replaced with fresh medium. 24 hours after media change, plates were removed from the incubator, and equilibrated to RT for several minutes on a lab bench, then aspirated. […] Following a 5-min incubation at RT, luminescence was measured using a Tecan machine with 500 mSec read time. The luciferase activity was expressed as mean arbitrary light unit (ALU)±S.D.

Data set [2] relates to luciferase target gene expression in HEK 293 cells (aptamer-modulated RNase P cleavage of mRNA). In words: Firefly luciferase assay of transfected cells treated with or without aptamer ligand. In kind it is cell-based. As to the method:
Firefly luciferase assay of cultured cells: 3.5×10^4 HEK 293 cells were plated in 96-well flat bottom plate the day before transfection. Plasmid DNA (500 ng) was added to a tube or a 96-well U-bottom plate. Separately, TransIT-293 reagent (Minis; 1.4 μL) was added to 50 μL opti-mem I media (Life Technologies) and allowed to sit for 5 minutes at room temperature (“RT”). Then, 50 μL of this diluted transfection reagent was added to the DNA, mixed, and incubated at RT for 20 min. Finally, 7 μL of this solution was added to a well of cells in a 96-well plate. 4 hours after transfection, medium containing transfection solution was replaced with fresh medium. 24 hours after media change, plates were removed from the incubator, and equilibrated to RT for several minutes on a lab bench, then aspirated. Glo-lysis buffer (Promega, 100 μL, RT) was added, and the plates allowed to remain at RT for at least 5 minutes. Then, the well contents were mixed by 50 μL trituration, and 20 μL of each sample was mixed with 20 μL of bright-glo reagent (Promega) that had been diluted to 10% in glo-lysis buffer. 96 wells were spaced on an opaque white 384-well plate. Following a 5-min incubation at RT, luminescence was measured using a Tecan machine with 500 mSec read time. The luciferase activity was expressed as mean arbitrary light unit (ALU)±S.D.
Plasmid constructs: oligonucleotide fragments containing mascRNA and guanine aptamer sequences (Mandal, M, et al., Cell 113, 577-586 (2003), incorporated herein by reference) were synthesized (IDT) and cloned into a luciferase (Luci) expression construct (Con8) in the 3′ UTR region using compatible restriction sites BamHI and XhoI. All the constructs were verified by DNA sequencing (Genewiz).
Firefly luciferase assay of cultured cells: cells were transfected as described in Example 1. Four hours after transfection, medium containing transfection solution was replaced by medium with either 0.5% DMSO as solvent control or 500 μM guanosine (Sigma) as aptamer ligand. Twenty-two to twenty-four hours after treatment, a luciferase assay was performed as described in Example 1.
Plasmid construction: a DNA fragment containing sequences for the guanine aptamer xpt-G and human arginine pre-tRNA (Nashimoto M. N. et al. Long 5′ leaders inhibit removal of a 3′ trailer from a precursor tRNA by mammalian tRNA 3′ processing endoribonuclease. Nucleic Acids Research, 1999; 27(13): 2770-2776) were synthesized (IDT). The synthesized DNA fragments were digested with BamHI and XhoI restriction enzymes and cloned into the Con8 construct digested with the same restriction enzymes. Construct sequences were verified by DNA sequencing (Genewiz).
Plasmid construction: a DNA fragment containing sequences for the adenine aptamer ydhl-A (M. Mandal and R. R. Breaker, Adenine riboswitches and gene activation by disruption of a transcription terminator. Nature Structural & Molecular Biology. 2004; 11: 29-35, incorporated herein by reference) or theophylline aptamer (G. R. Zimmerman, et al. Interlocking structural motifs mediate molecular discrimination by a theophylline-binding RNA. Nature Structural Biology. 1997; 4: 644-649, incorporated herein by reference), and mascRNA sequence were synthesized (IDT). The synthesized DNA fragments were digested with BamHI and XhoI restriction enzymes and cloned into Con8 digested with the same restriction enzymes. Construct sequences were verified by DNA sequencing (Genewiz).
Four hours after transfection, the media was aspirated, and new media with NaOH (1 mM) as solvent or 1 mM adenine (Calbiochem), or 3 mM theophylline (Sigma) was added. The induction fold was expressed as the quotient of luciferase activity obtained in the presence of aptamer ligand divided by the value obtained in the absence of the aptamer ligand. […]

Take “Luci-mascRNA-mlp: luciferase construct with mascRNA mutated in the T-loop from UUC to AAG, negative control (GACGCUGGUGGCUGGCACUCCUGGUUUCCAGGACGGGGAAGAAGUCCCUGCGGUGUCU)”: the “decrease in luciferase expression compared to the luciferase construct that has no mascRNA (Luci)” value in data set [1] is reported as 20%.

B1: TheoM: SEQ ID NO: 16; theophylline aptamer and mascRNA in luciferase 3' UTR (nucleic acid)
chain: CCTCATAAAGGCCAAGAAGGGCGGAAAGATCGCCGTGTAAGGATCCAAGACGAGCTGTACAAGTAAAGCGGCCTAATGTGATACCAGCCGAAAGGCCCTTGGCAGCACATTAGACGCTGGTGGCTGGCACTCCTGGTTTCCAGGACGGGGTTCAAGTCCCTGCGGTGTCTTTGCTTGGATCGGCCGCGACTCTAGAGTCGACCTGCAGGCATGCAAGCTTCAGCTGCTCGAGGGCCCAGATCTAATTCACCCCACCAGTGCAGGCTGCCTATCAG
As to B1, the “fold increase in luciferase expression with theophylline” value in data set [2] (3 mM theophylline vs solvent) is 4.1 fold. Moreover, the “luciferase level as % of the control Con8 construct” value in data set [2] (absence of theophylline treatment) is given as “approximately 43.4%”.

B2: MG3: SEQ ID NO: 12; MG1 variant with 4 alternatively shared nucleotides (nucleic acid)
chain: CCTCATAAAGGCCAAGAAGGGCGGAAAGATCGCCGTGTAAGGATCCAAGACGAGCTGTACAAGTAAAGCGGCCAATTCGGACAAAAACGAGACGCTGGTGGCTGGCACTCCTGGTTTCCAGGACGGGGTTCAAGTCCCTGCGGTGTCTGTATAATCGCGTGGATATGGCACGCAAGTTTCTACCGGGCACCGTAAATGTCCGACTACAGACAATCTAGAGTCGACCTGCAGGCATGCAAGCTTCAGCTGCTCGAGGGCCCAGATCTAATTCACCCCACCAGTGCAGGCTGCCTATCAG
For B2, the “basal level luciferase activity” value in data set [2] (absence of guanine) was “modest decrease”. Also, in data set [2] (guanine treatment), the “induction fold of luciferase, with guanine versus without guanine” value is listed as “approximately 2 fold”.

B3: MG4: SEQ ID NO: 13; MG1 variant with 3 alternatively shared nucleotides (nucleic acid)
chain: CCTCATAAAGGCCAAGAAGGGCGGAAAGATCGCCGTGTAAGGATCCAAGACGAGCTGTACAAGTAAAGCGGCCAATTCGGACAAAAACGAGACGCTGGTGGCTGGCACTCCTGGTTTCCAGGACGGGGTTCAAGTCCCTGCGGTGTCTAGTATAATCGCGTGGATATGGCACGCAAGTTTCTACCGGGCACCGTAAATGTCCGACTACTAGACTTCTAGAGTCGACCTGCAGGCATGCAAGCTTCAGCTGCTCGAGGGCCCAGATCTAATTCACCCCACCAGTGCAGGCTGCCTATCAG
On to B3, for which the “basal level luciferase activity” value in data set [2] (absence of guanine) is reported as “modest decrease”. Also, the “induction fold of luciferase, with guanine versus without guanine” value in data set [2] (guanine treatment) is reported as “approximately 2 fold”.

B4: YM: SEQ ID NO: 15; ydhl-A adenine aptamer and mascRNA in luciferase 3' UTR (nucleic acid)
chain: CCTCATAAAGGCCAAGAAGGGCGGAAAGATCGCCGTGTAAGGATCCAAGACGAGCTGTACAAGTAAAGCGGCCGTAATGTTATAACCTCAATAATATGGTTTGAGGGTGTCTACCAGGAACCGTAAAATCCTGATTAACATTACGACGCTGGTGGCTGGCACTCCTGGTTTCCAGGACGGGGTTCAAGTCCCTGCGGTGTCTTTGCTTGGATCGGCCGCGACTCTAGAGTCGACCTGCAGGCATGCAAGCTTCAGCTGCTCGAGGGCCCAGATCTAATTCACCCCACCAGTGCAGGCTGCCTATCAG
Regarding B4, the “fold increase in luciferase expression with adenine” value in data set [2] (1 mM adenine vs NaOH solvent) was determined as 3.3 fold.

B5: GM8: SEQ ID NO: 10; 3 nucleotides between effector region stem and mascRNA acceptor stem (nucleic acid)
chain: CCTCATAAAGGCCAAGAAGGGCGGAAAGATCGCCGTGTAAGGATCCAAGACGAGCTGTACAAGTAAAGAAGAGCTAATGTATAATCGCGTGGATATGGCACGCAAGTTTCTACCGGGCACCGTAAATGTCCGACTACATTAGCCGAGACGCTGGTGGCTGGCACTCCTGGTTTCCAGGACGGGGTTCAAGTCCCTGCGGTGTCTTTGCTTGGATCGGCCGCGACTCTAGAGTCGACCTGCAGGCATGCAAGCTTCAGCTGCTCGAGGGCCCAGATCTAATTCACCCCACCAGTGCAGGCTGCCTATCAG
Turning to B5, in data set [2] (guanine treatment), the “luciferase expression in response to guanine treatment” value was “upregulate luciferase expression”.

B6: GArg: SEQ ID NO: 14; GM1 with mascRNA replaced by human arginine tRNA sequence (nucleic acid)
chain: CCTCATAAAGGCCAAGAAGGGCGGAAAGATCGCCGTGTAAGGATCCAAGACGAGCTGTACAAGTAAAGAAGACTGCGACGATAATCGCGTGGATATGGCACGCAAGTTTCTACCGGGCACCGTAAATGTCCGACTCGTCGCAGGGCCAGTGGCGCAATGGATAACGCGTCTGACTACGGATCAGAAGATTCCAGGTTCGACTCCTGGCTGGCTCGGTGTAGGCCGCGACTCTAGAGTCGACCTGCAGGCATGCAAGCTTCAGCTGCTCGAGGGCCCAGATCTAATTCACCCCACCAGTGCAGGCTGCCTATCAG
On to B6, for which the “basal level luciferase expression as % of control construct Con8” value in data set [2] (absence of guanine) is on record as “approximately 50%”. In addition, in data set [2] (guanine treatment), the “induction fold of luciferase, with guanine versus without guanine” value is 1.6 fold.
